What was measured:
B. licheniformis CotA = conditions: described in Koschorreck K et al, 2008; cited from earlier work
Bacillus subtilis CotA = conditions: described in Durão P et al, 2008; cited from earlier work
[1] = 2,6-DMP oxidation kinetics, absorbance at 468 nm; type: biochemical; conditions: Phosphate-citrate buffer
Experimental: (§1) Kinetic experiments were performed on the Molecular Devices SpectraMax® M2 microplate reader spectrophotometer at 22° C. with purified protein. […] Reactions were carried out with 10 μg Mnx (final 240 nM) 100 mM in phosphate-citrate buffer pH 3-8 and 20 mM CHES, HEPES, and MES at pH 7-10. Dimethoxyphenol (DMP) oxidation was followed by measuring the increase in absorbance at 468 nm and ε=49.6 mM-1 cm-1. These assays were performed in at least two independent trials in triplicate. Fe(II) (ferrous ammonium sulfate) oxidation was measured by quenching 200 μl reactions with 50 μl of the Fe(II) chelating colorimetric assay FerroZine® (15 mM) and a ferrous ammonium sulfate standard curve, noting the absorbance at 570 nm. Fe(II) oxidation reactions were performed with 10 μg recombinant Mn oxidase complex in 100 mM Na acetate-acetic acid buffer (pH 4-5.5). Mn(II) (MnCl2) oxidation in 20 mM HEPES (pH 7-8.5) was measured by quenching 5 μl of 200 μl reactions with 195 μl leucoberbelin blue (LBB) colorimetric reagent and reading the absorbance at 618 nm. […] These slopes were converted to the appropriate kinetic units, plotted, and fit with nonlinear regressions determined by comparing best fit values in the same software. KM and Vmax were determined and reported as KM and kcat=Vmax/[enzyme].

[2] = Mn(II) oxidation kinetics, leucoberbelin blue (LBB) quench assay; type: biochemical
Experimental: Kinetic experiments were performed on the Molecular Devices SpectraMax® M2 microplate reader spectrophotometer at 22° C. with purified protein. […] Reactions were carried out with 10 μg Mnx (final 240 nM) 100 mM in phosphate-citrate buffer pH 3-8 and 20 mM CHES, HEPES, and MES at pH 7-10. Dimethoxyphenol (DMP) oxidation was followed by measuring the increase in absorbance at 468 nm and ε=49.6 mM-1 cm-1. These assays were performed in at least two independent trials in triplicate. Fe(II) (ferrous ammonium sulfate) oxidation was measured by quenching 200 μl reactions with 50 μl of the Fe(II) chelating colorimetric assay FerroZine® (15 mM) and a ferrous ammonium sulfate standard curve, noting the absorbance at 570 nm. Fe(II) oxidation reactions were performed with 10 μg recombinant Mn oxidase complex in 100 mM Na acetate-acetic acid buffer (pH 4-5.5). Mn(II) (MnCl2) oxidation in 20 mM HEPES (pH 7-8.5) was measured by quenching 5 μl of 200 μl reactions with 195 μl leucoberbelin blue (LBB) colorimetric reagent and reading the absorbance at 618 nm. Working LBB reagent was prepared by diluting concentrated stock (100 mg LBB in 25 ml 0.4% NaOH) 1:10 into 1% acetic acid. A KMnO4 standard curve was used to determine MnO2 oxide equivalent concentration. The metal substrate assays were performed in five independent trials then the high and low values were discarded from each concentration. The linear part of each curve was fit plotted and fit with a linear regression in GraphPad Prism®. These slopes were converted to the appropriate kinetic units, plotted, and fit with nonlinear regressions determined by comparing best fit values in the same software. KM and Vmax were determined and reported as KM and kcat=Vmax/[enzyme].

[3] = O2 consumption during Mn oxidation, Clark type electrode; type: biochemical; conditions: for lag time before O2 consumption is detected: after addition of MnCl2, across all runs
Experimental: Also indicative of MCOs is the consumption of O2 and its reduction to H2O, terminating electron transfer at the trinuclear Cu center. O2 consumption was measured on a Clark type electrode during Mn oxidation by the recombinant Mn oxidase complex. Following the addition of MnCl2 to the enzyme, there is about a 30 s lag time before O2 consumption is detected across all runs (FIG. 7A). Starting with a higher concentration of MnCl2, results in a faster initial velocity of O2 consumption (FIG. 7B). […] This stoichiometry supports the MCO mechanism of the four electron reduction required to generate 2 mol H2O from 1 mol O2.
Oxygen consumption was measured on a Rank Brothers LTD model 10 electrode with the polarizing voltage set to 630 mV. The 2 ml water-jacketed reaction cell was kept at 37° C. using a water bath. The instrument was calibrated by taking a zero measurement with Ar purged water and a 100% measurement with atmospheric oxygenated water assuming 214 μM O2 at […]. A computer interfaced with the electrode measured 02 every 1 s. Data collection began about 1 min before 10 μL of 1 mg/ml Mnx protein (^˜24 nM final if mass of recombinant Mn oxidase complex is 211 kDa) was added through the 2 mm diameter opening in the cap and allowed to equilibrate with 37° C. 20 mM HEPES pH 7.8 50 mM NaCl. Another minute of baseline reading was taken before adding 10 μL of various concentrations of MnCl2. The data was plotted Time (min) vs. % O2 remaining, if addition of MnCl2 is t=0. The initial O2 consumption velocities of all runs were plotted against starting MnCl2 concentration. Total O2 consumed was calculated by taking the difference of final from initial O2 concentrations then plotted against MnCl2 concentration and fitted with a linear regression, forced through the xy origin.

[4] = Fe(II) oxidation kinetics, FerroZine quench assay; type: biochemical; conditions: pH 5
Experimental: as §1

Row | Molecule | kcat (B. licheniformis CotA) | Km (Bacillus subtilis CotA) | kcat (Bacillus subtilis CotA) | 2,6-DMP oxidation activity [1] | pH optimum of Mn oxidation [2] | Mn(II) K0.5 ([2]; HEPES dialyzed protein) | Mn(II) kcat ([2]; HEPES dialyzed protein) | Mn(II) K0.5 ([2]; Tris dialyzed protein) | Mn(II) kcat ([2]; Tris dialyzed protein) | lag time before O2 consumption is detected [3] | lag time before O2 consumption is detected ([3]; listed as recombinant Mnx complex) | slope of MnCl2 added vs. O2 consumed ([3]; linear regression forced through the origin, 37° C., HEPES pH 7.8) | Fe(II) kcat [4] | Km [4]
1 | CCn1c(=NN=c2sc3cc(S(=O)(=O)O)ccc3n2CC)sc2cc(S(=O)(=O)O)ccc21 [ABTS, 2,2′-azino-bis(3-ethylbenzthiazoline-6-sulphonic acid)] | 322 s⁻¹ | 6.5 µM | 83 s⁻¹ | – | – | – | – | – | – | – | – | – | – | –
2 | recombinant Mn oxidase complex: recombinantly produced Bacillus sp. PL-12 manganese oxidase complex comprising MnxG, MnxE and MnxF, expressed in E. coli (protein, listed as Bacillus sp.) chain 1: HVFHYHVHQWLGDSSNINAEILDAQSISPQTHYSIQPLYGLGSLHGAIGDSIIHCHLYPHFGIGMWGINRVFDTLQDGSQCYPNGVRIDALKPLPDRPAPPKPTREKPGFPNFIPGKVGYKAPRPPLGIVGGREMTELERNAAIPNPRPGAVFVDPCLDQDPVVVEFNVSAIEMPVVYNKQGWHDPKARFYVMDEDLDDILSGKKEPEPLVFHVPAGTCIRMNYTNRMPHILDGDAFQLVTRTYENGFHIHFVKFDVLACDGGNVGWNYDSAVLPGQTIRYEWYAETELKAWFFHDHLF chain 2: MHDSPLKSLSAASNVASVNDPLFDFFNKHMGKQILIITESSQLNILGQTFRPIFCGKVAEVEPGHLTLSPVTIKILNAPFHKFPIPLSIPFEKIAHFTTDVDCSMRIPLV chain 3: MEALFPMSTDYSKMTDVNEIHDSAILEHFRNGIGHKTLVISPSYPYMFVGIIKELIGDTVMIDVETTHFAQLENREWYIHIHNIEVFYIERPGAPKIPKLEDY | – | – | – | inactive | 7.8 | 123 ± 7.00 µM | 16.1 ± 0.941 s⁻¹ | 134.6 ± 9.16 µM | 12.9 ± 0.758 s⁻¹ | ~30 s | about 30 s | about 0.252±0.0149 | 0.0744 ± 0.00779 s⁻¹ | 9 µM

— patent publication US9631180B2, “Recombinant manganese oxidase” (OREGON HEALTH & SCIENCE UNIVERSITY, priority 2013, dated 2017)
